Substitutions are numbered along the chain they refer to.
T1: recombinant DLL3 protein (purchased from ACRO, DL3-H5255) (human, UniProt Q9NYJ7 27-479)
T1 construct: Bought; also called human DLL3 protein; hDLL3
T1 sequence (looked up): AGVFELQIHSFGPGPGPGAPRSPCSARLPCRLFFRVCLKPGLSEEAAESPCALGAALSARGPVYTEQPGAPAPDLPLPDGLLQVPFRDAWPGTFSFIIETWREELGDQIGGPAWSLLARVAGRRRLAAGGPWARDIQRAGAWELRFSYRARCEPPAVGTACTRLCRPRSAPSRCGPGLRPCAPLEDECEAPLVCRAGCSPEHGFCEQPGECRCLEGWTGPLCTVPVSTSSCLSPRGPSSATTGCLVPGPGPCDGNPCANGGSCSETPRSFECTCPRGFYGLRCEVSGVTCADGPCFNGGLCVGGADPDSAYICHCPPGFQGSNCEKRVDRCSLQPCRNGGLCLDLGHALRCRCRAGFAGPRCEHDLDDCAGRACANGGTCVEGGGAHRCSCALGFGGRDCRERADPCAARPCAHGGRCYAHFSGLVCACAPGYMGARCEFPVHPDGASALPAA

B1: ch32E8 (antibody, human IgG1, kappa, V domains shown)
VH: QVTLKESGPGILQPSQTLSLTCSFSGFSLSTSGMGVGWIRQPSGKGLEWLALIWWDDVKRYHPALKSRLTISKDTSSSQVFLKIASVDTADTATYYCARIAEVTGQVGLHYAMDYWGQGTSVTVSS
VL: QTVLTQSPAIMSASLGERVTMTCTASSSVNSSSLHWYQQKPGSSPKLWIYTTSNLASGVPARFSGSGSGTSYSLTISSMEAEDAATYYCHQFHRSPFTFGSGTKLEIKR
notes: Chimeric: murine variable regions on human IgG1 heavy and kappa light constant regions; also called chimeric antibody 32E8
B2: ch33F11 (antibody, human IgG1, kappa, V domains shown)
VH: EVQLQQSGPELVKPGASVKISCKTSGYTFTENTMHWVKQSHGESLEWIGGINPRNGVTSYNQKFKGKATLTVDKSSSTAYMELRSLTSEDSAVYYCTNTYYRDYFDYWGQGTTLTVSS
VL: NIVMTQSPKSMSMSVGERVTLSCKASENVGTYVSWYQQKPDQSPKLLIYGASNRYTGVPDRFTGSGSPTDFTLTISRMQAEDLAHYYCGQTYTYPLTFGAGTKLELKR
notes: Chimeric: murine variable regions on human IgG1 heavy and kappa light constant regions; also called chimeric antibody 33F11
B3: ch1A5 (antibody, human IgG1, kappa, V domains shown)
VH: B2 VH with N32S, T33A, E43K, R54N, V57G, T58I, N61S, T97G, N98S, T99S
VL: B2 VL with K9E, P68A, D70H, R77S, M78V, H85D, Y87H, T91S, T93S
notes: Chimeric: murine variable regions on human IgG1 heavy and kappa light constant regions, expressed in 293F cells; also called chimeric antibody 1A5
B4: ch15G2 (antibody, human IgG1, kappa, V domains shown)
VH: EVQLQQSGPELEKPGASVRISCKASGYSFTDYNMHWVKQSNGKSLEWIGNIDPYYGGTNYNQKFEGKATLTVDKSSSTAYMQLKSLTSEDSAVYYCARGGNNYGDYWGQGTTLTVSS
VL: DIQMTQSPASLAASVGETVTITCRASENIYYSLAWYQQKQGKSPQLLIFNANSLEDGVPSRFSGSGSGTQYSMKINSMQPEDTATYFCKQAYDVPWTFGGGTKLEIKR
notes: Chimeric: murine variable regions on human IgG1 heavy and kappa light constant regions; also called chimeric antibody 15G2
B5: ch19C7 (antibody, human IgG1, kappa, V domains shown)
VH: EVQLQQSGPELVRPGASVRMSCKASGYTFTYYVMHWVKQKPGLGLEWIGYINPYNDGTEYNEKFKGKATLTSDKSSSTAFMELSSLTSEDSAVYYCARWLLREYAMDYWGQGTSVTVSS
VL: DIQMTQSPASLSASVGETVTITCRASDNIHNYLAWYQQKQGKSPQLLVYNAKTLADGVPSRFSGSGSGTQYSLKINSLQPEDFGSYYCQHFWSTPWTFGGGTKLEIKR
notes: Chimeric: murine variable regions on human IgG1 heavy and kappa light constant regions; also called chimeric antibody 19C7
B6: ch26D9 (antibody, human IgG1, kappa, V domains shown)
VH: EVQLQQSGPELVKPGASVKMSCKASGYTFTTYVMHWVKQKPGQGLEWIGYINPYNDDTNYNEKFKGKATLTSDKSSSTAYMELSSLTSEDSAVYYCARWGLTGTGDYYAMDYWGQGTSVTVSS
VL: B5 VL with D27G, I29V, K42R, L46V, Q79L, S93T, K103T
notes: Chimeric: murine variable regions on human IgG1 heavy and kappa light constant regions; also called chimeric antibody 26D9
B7: ch13C2 (antibody, human IgG1, kappa, V domains shown)
VH: EVKLVESGGGLVKPGGSLKLSCAASGFAFSSYDMSWVRQTPEKRLEWVATISSGGSYTYYPDSVKGRFTISRDNGRNTLYLQMSSLRSEDTALYYCASPLLGLRFAYWGQGTLVTVSA
VL: QAVVTQESALTTSPGETVTLTCRSSTGAVTTINYANWVQEKPDHLFTGLIGGTNNRAPGVPARFSGSLIGDKAALTITGAQTEDEAIYFCALYYSNHWVFGGGTKLTVLR
notes: Chimeric: murine variable regions on human IgG1 heavy and kappa light constant regions; also called chimeric antibody 13C2
B8: ch6A2 (antibody, human IgG1, kappa, V domains shown)
VH: EVQLQQSGPELVKPGASVKISCKASGYTFTDYNMNWVKQSQGKSLEWIGYIYPYNGGTGYNQKFKTKATLTVDNSSSTAYMEFRSLTSEDSAVYYCARSDPYYTMDYWGQGTSVTVSS
VL: IIVMTQTPKFLLVSAGDRVTISCKASQSVNNDVAWYQQKPGQSPKLLIYFTSNRFTGVPDRFTGSGYGTDFTFTISSVQAEDLAVYFCQQDHNSPYTFGGGTKLEIKR
notes: Chimeric: murine variable regions on human IgG1 heavy and kappa light constant regions; also called chimeric antibody 6A2
B9: ch23G2 (antibody, human IgG1, kappa, V domains shown)
VH: QVQLQQSGPELVRPGVSVKISCKGSGYTFTDYAIHWVKQSRAKSPEWIGIVSTDSGKTSFNQKFKGKATMTVDKSSTTAYMELVRLTSEDSAIYYCARNPYYDYDGYAMDYWGQGTSVTVSS
VL: DIQMTQSSSYLSVSLGGRVTIICKASDHINNWLAWYQQKPGNAPRLIISGATSLETGVPSRFSGSGSGKDYTLSITSLQTEDVATYYCQQYWSIPYTFGGGTKLEIKR
notes: Chimeric: murine variable regions on human IgG1 heavy and kappa light constant regions; also called chimeric antibody 23G2
B10: ch10B1 (antibody, human IgG1, kappa, V domains shown)
VH: DVKLVESGGGLVKPGGSLKLSCAASGFTFSNYTISWVRQTPEKRLEWVATFSSGGSYTYYSDSVKGRFTISRDNAKNTLYLQMSSLKSEDTAMYYCSRDRRSDGYYHLYAMDYWGQGTSVTVSS
VL: DIQMTQTTSSLSASLGDRVTISCRASQDISHYLNWYQQKPDGTVKLLIYYTSRLHSGVPSRFSGSGSGTAYSLTISNLEQEDIATYFCQQGYTLPLTFGAGTKLELKR
notes: Chimeric: murine variable regions on human IgG1 heavy and kappa light constant regions; also called chimeric antibody 10B1

Molecular target: T2, human DLL4 (purchased from Acro, DL4-H5227) (human, UniProt Q9NR61 27-524)
T2 construct: Bought; also called hDLL4
T2 sequence (Q9NR61 27-524 limits assumed): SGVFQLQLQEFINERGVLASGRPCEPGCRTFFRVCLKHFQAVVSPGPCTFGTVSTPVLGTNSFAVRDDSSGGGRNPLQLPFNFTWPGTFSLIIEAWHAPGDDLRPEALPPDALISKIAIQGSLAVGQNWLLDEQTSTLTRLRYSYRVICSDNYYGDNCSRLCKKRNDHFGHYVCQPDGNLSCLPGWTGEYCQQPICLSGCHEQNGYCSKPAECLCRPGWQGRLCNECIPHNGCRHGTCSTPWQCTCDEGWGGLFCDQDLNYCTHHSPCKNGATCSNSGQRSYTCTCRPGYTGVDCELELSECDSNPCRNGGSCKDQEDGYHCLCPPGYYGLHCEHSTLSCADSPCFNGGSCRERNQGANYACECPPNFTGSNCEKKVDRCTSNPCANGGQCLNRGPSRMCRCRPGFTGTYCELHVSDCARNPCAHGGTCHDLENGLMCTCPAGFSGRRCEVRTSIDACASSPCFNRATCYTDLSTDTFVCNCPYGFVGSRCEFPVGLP
Test: ELISA on plate-coated human DLL4 protein (1 µg/ml), HRP goat anti-human secondary, OD 450 nm [right panel]
Method: (§1) The chimeric antibodies obtained in Example 6 were evaluated for their binding abilities to human DLL1 (purchased from Acro, DL1-H52H8) and DLL4 (purchased from Acro, DL4-H5227) proteins using the ELISA method. The ELISA detection method involved diluting DLL1 and DLL4 proteins with PBS to a final concentration of 1 μg/ml and coating them onto 384-well ELISA plates (purchased from Corning, 3700) at 4° C. overnight. The next day, the supernatant in the plate wells was discarded, and the wells were blocked with 80 μl of 3% milk (dissolved in PBS) for 2 hours, followed by washing three times with 80 μl of PBST (0.1% Tween20). […] After washing with 80 μl of PBST (0.1% Tween20) for five times, 25 μl of HRP-labeled goat anti-human secondary antibody (Jackson, 1:10000) was added to each well and incubated at room temperature for 1 hour, discard the supernatant, and the wells were then washed seven times with 80 μl of PBST (0.1% Tween20). After adding 25 μl of TMB chromogen solution for 10 minutes, the reaction was terminated with 2M HCl, and the absorbance value at 450 nm was measured with a Microplate reader (purchased from Biotek, Elx808). […] To assess the cross-reactivity of the antibodies with mouse and monkey DLL3, mouse DLL3-expressing plasmid pCMV3-mDLL3 (purchased from Beijing Yiqiao, MG58052-UT) and monkey DLL3-expressing plasmid pCMV3-rheDLL3 (purchased from Beijing Yiqiao, CG90919-UT) were used to construct overexpressing cell lines. The construction of overexpressing cells was as described in Examples 2-3. The binding abilities of the chimeric antibodies to these cells were determined by flow cytometry to assess the cross-reactivity of the antibodies with different species.

binding result	Binder
no binding (tested: 20 µg/ml)	B1
no binding (tested: 20 µg/ml)	B2
no binding (tested: 20 µg/ml)	B3
no binding (tested: 20 µg/ml)	B4
no binding (tested: 20 µg/ml)	B5
no binding (tested: 20 µg/ml)	B6
no binding (tested: 20 µg/ml)	B7
binds	B8

Molecular target: T1, recombinant DLL3 protein (purchased …)
Test: ELISA, plate-coated human DLL3 protein 1 µg/ml
Source text: Six 6-week-old SPF grade female Balb/C mice (purchased from Shanghai Jihui Laboratory Animal Care Co., Ltd.) were selected and randomly divided into two groups, A and B. They were immunized with recombinant DLL3 protein (purchased from ACRO, DL3-H5255) at two-week intervals. Freund's complete adjuvant was used for the first immunization and Freund's incomplete adjuvant was used for subsequent immunizations. On days 35 and 49, blood samples were collected from the mice via orbital bleeding, and the immune serum titers of the mice were detected using conventional methods of ELISA and Flow Cytometry (FACS). ELISA detection method: DLL3 protein was diluted with PBS to a concentration of 1 μg/ml. 100 μl/well was added to a 96-well ELISA plate and incubated overnight at 4° C. The next day, the supernatant was discarded, and each well was blocked with 200 μl of 2% milk in PBS for 2 hours. After discarding the blocking solution, the wells were washed 3 times with 200 μl of PBST (0.1% Tween20). The serum to be detected was pre-diluted 100 times as the starting concentration, followed by a 3-fold gradient dilution across 11 concentrations, with 100 μl added to each well of the ELISA plate. After incubating at room temperature for 1 hour, the supernatant was discarded and the wells were washed 5 times with 200 μl of PBST (0.1% Tween20). Then, 100 μl of HRP-labeled goat anti-mouse secondary antibody (Jackson, 1:10000) was added and incubated at room temperature for 1 hour. After discarding the supernatant, the wells were washed 7 times with 200 μl of PBST (0.1% Tween20). 100 μl of TMB chromogen solution was added to each well for 10 minutes. The reaction was terminated with 2M HCl, and absorbance value at 450 nm was read with a Microplate Reader (purchased from Biotek, Elx808).
For the hybridoma clones with good binding and internalization activities identified in Example 5, the heavy chain variable region sequences were synthesized and cloned into the pFUSEss-CHIg-hG1 vector (purchased from InvivoGen, catalog number pfusess-hchgl) comprising the amino acid sequence of the human antibody IgG1 heavy chain constant region by homologous recombination.

EC50	Binder
8.83 ng/mL	B1
9.55 ng/mL	B2
9.21 ng/mL	B3
9.41 ng/mL	B9
8.53 ng/mL	B4
8.66 ng/mL	B5
11.8 ng/mL	B6
395 ng/mL	B7
16.8 ng/mL	B10
13.1 ng/mL	B8

Molecular target: T2, human DLL4 (purchased from Acro, …)
Test: ELISA, plate-coated protein 1 µg/ml
Method: as §1

binding result	Binder
no binding (tested: up to 20 µg/ml)	B9
no binding (tested: up to 20 µg/ml)	B10

Source: patent US20250114467A1 (SHANGHAI FUDAN ZHANGJIANG BIO PHARMACEUTICAL, published 2025)
